Assay results reported in patent publication US10029000B2, “Uses of IL-12 in hematopoiesis” (University of Southern California, priority 2003, dated 2018).

Assays:
[1] = tested on: short-term hematopoietic stem cells (ST-HSCs); test: Colony forming units spleen day 12 assay (CFU-S12); format: in vivo, mice
Procedure: To determine the bone marrow cell subsets that are protected by IL-12 administration for the rescue phenomena, CFC and CFU-S12 assay were performed at different time post lethal dose radiation. Bone marrow cells were recovered from IL-12 treated or control animals immediately (day 0), or at day 7, 9, 10, 12, 14 and 21 post radiation for CFC and CFU-S12 assay. If progenitor cells are protected from IL-12 treatment (IL-12 was administered in this study at 24 hours before radiation), CFC and CFU-S12 colonies should be detected when cells were removed at day 0. However, bone marrow cells isolated at day 0, 7 post radiation give rise no CFC nor CFU-S12 colonies in both IL-12 treated and control animals. At day 10 post radiation, the bone marrow cells isolated from IL-12 treated mice start to give rise of CFU-S12 but no detectable CFC, which start to appear from IL-112 treated bone marrow isolated 12 days post radiation and fully recovered from bone marrow cells isolated 14 days post radiation, as shown in FIGS. 5A and 5B. […] The CFU-S12 colony forming cells and CFC cells at day 10 and day 14 post radiation may be derived from long-term repopulating stem cells rescued by IL-12 treatment. […]
For the CFU-spleen12 assay, 2×10^5 bone marrow cells as donors were transplanted into recipient mice which received lethal irradiation. […] Spleen colonies were counted.

peripheral blood cells = test: Blood cell recovery after chemotherapeutic drug Cytoxan; format: in vivo, mice; settings: Cytoxan 300 mg/kg, IL-12 36 hrs before or 12 hrs after, n=5
Procedure: FIG. 9A: white blood cell; FIG. 9B: red blood cell; FIG. 9C: platelet; FIG. 9D: lymphocyte; FIG. 9E: monocyte; FIG. 9F: neutrophile. Cytoxan is name for cyclophosphamide.
A study was conducted to determine whether IL-12 administration promotes multi-lineage blood cell recovery when used in conjunction with a chemotherapeutic drug. In this example, use of IL-12 is as an adjuvant or ancillary therapy to the primary therapy of chemotherapy. IL-12 was administrated at different time (36 hrs before or 12 hrs after chemotherapy). Mice in this study received a relatively high dose of chemotherapeutic drug Cytoxan (e.g., 300 mg/kg). At different time post-cytoxan treatment, peripheral blood was collected via tail vein for blood cell count study. (Mascot). FIG. 9A white blood cell count; B: red blood cell count; C: platelet count.

[2] = tested on: long-term repopulating HSC; test: Secondary bone marrow transplantation of IL-12 rescued marrow; format: in vivo, mice (Ly5.2 donor, Ly5.1 recipient); settings: donor derived T/B and M/G cells detected
Source text: FIG. 5D-F: Secondary bone marrow transplantation was employed to detect if IL-12 can protect long-term repopulating HSC. Six month after lethal dose radiation and IL-12 rescue, bone marrow cells from these mice (Ly 5.2) were isolated and transplanted to secondary lethally irradiated mice (Ly 5.1). Four months after transplantation, donor cells (Ly5.2) were examined in recipient's peripheral blood.
The following gives some further experimental details. Six months after the rescue from lethal dose radiation (IL-12 treated mice, C57BL/Ly5.2), whole bone marrow cells were isolated and 1×10^6 cells were transplanted to secondary lethally irradiated mice (C57BL/Ly5.1). 4 months after transplantation, blood cells were collected and stained with anti-Ly5.2 and anti-Mac-1/anti-Gr-lantibodies (5D), and anti-Ly5.2 and anti-CD3/anti-B220 antibodies (5E) and anti-Ly5.2 antibody (5F). […]
Ly5.2 strain mice rescued by IL-112 treatment before or after lethal irradiation were sacrificed after 6 months. […] 4 months after the transplantation, peripheral blood cells were analyzed for Ly5.2 cells (anti-Ly5.2 antibody conjugated with FITC) with T cell and B cell markers (anti-CD3 and anti-B220 antibody conjugated with PE) and with macrophage and granulocyte cell markers (anti-CD11b and anti-Gr1 antibody conjugated with PE) using FACS. […]

[3] = tested on: bone marrow progenitor cells; test: Colony forming cell assay (CFC assay) of bone marrow after lethal irradiation; format: in vivo, mice
Procedure: To determine the bone marrow cell subsets that are protected by IL-12 administration for the rescue phenomena, CFC and CFU-S12 assay were performed at different time post lethal dose radiation. Bone marrow cells were recovered from IL-12 treated or control animals immediately (day 0), or at day 7, 9, 10, 12, 14 and 21 post radiation for CFC and CFU-S12 assay. If progenitor cells are protected from IL-12 treatment (IL-12 was administered in this study at 24 hours before radiation), CFC and CFU-S12 colonies should be detected when cells were removed at day 0. However, bone marrow cells isolated at day 0, 7 post radiation give rise no CFC nor CFU-S12 colonies in both IL-12 treated and control animals. At day 10 post radiation, the bone marrow cells isolated from IL-12 treated mice start to give rise of CFU-S12 but no detectable CFC, which start to appear from IL-112 treated bone marrow isolated 12 days post radiation and fully recovered from bone marrow cells isolated 14 days post radiation, as shown in FIGS. 5A and 5B. […] The CFU-S12 colony forming cells and CFC cells at day 10 and day 14 post radiation may be derived from long-term repopulating stem cells rescued by IL-12 treatment.
FIG. 5A: Isolated bone marrow cells were plated in methycellulose plates for 12 days to detect colony formation. Bone marrow cells from normal mice were used as control for the assay system. […] In contract, there is no recovery of CFC cell activity from control mice bone marrow cells.
24 hours before lethal irradiation, mice were i.v. treated with IL-12 (100 ng/mouse) and bone marrow cells were isolated from these mice at different days after lethal irradiation. For CFU assay, 2×10^5 bone marrow cells were thoroughly mixed into 1 ml methylcellulose medium MethCult GF M3434 from StemCell Technologies Inc (Vancouver, BC) and cultured into 35 mm dishes. Each sample was duplicated. After 12 days culture, colonies (>50 cells) were counted under microscope.

small intestine = test: Small intestine histology after lethal dose radiation; format: in vivo, mice; settings: 5 ug/kg, 1000 rad or 1600 rad (10 and 16 Gy), 4 days post radiation
Procedure: 4 days post radiation, small intestine were removed, fixed for PAS staining for mice received 10 Gy (Periodic Acid Schiff), H&E staining for mice received 16 Gy. […] There is no obvious histological damage in mice who received 10 Gy radiation. (200× magnification)
To determine if IL-112 sensitizes intestinal tract to ionizing radiation, two different doses of IL-12 and radiation were used in radioprotection assay, namely 5 ug/kg and 50 ug/kg of IL-12 and two different doses of radiation were also used. Subsequent to the administration of IL-12 and radiation, both bone marrow and the small intestine were removed from mice who received either 5 ug/kg or 50 ug/kg of IL-12 and a lethal dose radiation for histology study. The lethal doses were either 1000 rad or 1600 rad.
Mice were treated with IL-12 (100 ng/mouse) or PBS 24 hours before receiving lethal irradiation. At different days after lethal irradiation, femurs, spleens and small intestines were removed and fixed in 10% formalin buffer for 24 hours. Subsequently, bone marrow was decalcified in Rapid Decalcifier for about 30 minutes. Samples and tissues then were embedded in TissuePrep 2 paraffin wax for micro-section at 5 μm for routine Hematoxylin and Eosin staining. Some small intestines were treated with PAS (Periodic Acid Schiff) staining.

[4] = lethal radiation, IL-12 24 hours before radiation

B1: IL-12: Recombinant murine interleukin 12, heterodimeric cytokine (p35+p40), purchased from R&D Systems or PeproTech (protein, UniProt P43431 23-215; P43432 23-335, looked up)
Interleukin-12 subunit alpha: RVIPVSGPARCLSQSRNLLKTTDDMVKTAREKLKHYSCTAEDIDHEDITRDQTSTLKTCLPLELHKNESCLATRETSSTTRGSCLPPQKTSLMMTLCLGSIYEDLKMYQTEFQAINAALQNHNHQQIILDKGMLVAIDELMQSLNHNGETLRQKPPVGEADPYRVKMKLCILLHAFSTRVVTINRVMGYLSSA
Interleukin-12 subunit beta: MWELEKDVYVVEVDWTPDAPGETVNLTCDTPEEDDITWTSDQRHGVIGSGKTLTITVKEFLDAGQYTCHKGGETLSHSHLLLHKKENGIWSTEILKNFKNKTFLKCEAPNYSGRFTCSWLVQRNMDLKFNIKSSSSSPDSRAVTCGMASLSAEKVTLDQRDYEKYSVSCQEDVTCPTAEETLPIELALEARQQNKYENYSTSFFIRDIIKPDPPKNLQMKPLKNSQVEVSWEYPDSWSTPHSYFSLKFFVRIQRKKEKMKETEEGCNQKGAFLVEKTSTEVQCKGGNVCVQAQDRYYNSSCSKWACVPCRVRS
In the case of B1, the CFU-S12 activity ([1]; cells isolated the first 7 days post lethal radiation) is reported as “did not give rise of CFU-S12”, the “time of full recovered CFU-S12 activity” value [1, 4] is reported as 10 days post radiation and the “blood cell recovery versus control” value (peripheral blood cells) is reported as “better blood cell recovery”. The “protection of long-term repopulating cells” value [2] was “protects long-term repopulating cells”, the CFC activity ([3]; day 12 post lethal radiation) was “low level CFC cell activity” and the CFC activity ([3]; first 9 days post lethal radiation, IL-12 24 hours before radiation) was “no detectable CFC activity”. For the same molecule, the “time of full recovery of CFC activity” value [3, 4] was “about 14 days post radiation” and the “small intestine histology versus control” value (small intestine) was “no significant histological difference”.
